{"source": "the DeepSol protein solubility set", "data": [{"assay": "soluble on expression in E. coli; label from the status in PepcDB or PDB records", "values": [{"sequence": "MSLQTCVLHRLSLPLKFPMRTAHGHIREKQAILVQLVDADGIEGWSECVALAEPTYTEECTDTAWVMLVHHLVPRFARWLRAASQDQDVDPRTVCEALRDVRGNRMSVAAIEMAVWDWYAARTGQPLVGLLGGGRDRVEVSATLGMSESLDVLIQSVDAAVEQGFRRVKLKIAPGRDRAAIKAVRLRYPDLAIAADANGSYRPEDAPVLRQLDAYDLQFIEQPLPEDDWFDLAKLQASLRTPVCLDESVRSVRELKLTARLGAARVLNVKPGRLGGFGATLRALDVAGEAGMAAWVGGMYETGVGRVHGLIAAALPLMRYATDLGPSDRYFEQDVLKEPIAFVEPGVIQVPQCAGVADWVDRDAVRRFSTATWSVDLRTLEGHHHHHH", "soluble on expression in E. coli": "soluble"}, {"sequence": "MTVQIPKLLFLHGFLQNGKVFSEKSSGIRKLLKKANVQCDYIDAPVLLEKKDLPFEMDDEKWQATLDADVNRAWFYHSEISHELDISEGLKSVVDHIKANGPYDGIVGFSQGAALSSIITNKISELVPDHPQFKVSVVISGYSFTEPDPEHPGELRITEKFRDSFAVKPDMKTKMIFIYGASDQAVPSVRSKYLYDIYLKAQNGNKEKVLAYEHPGGHMVPNKKDIIRPIVEQITSSLQEASE", "soluble on expression in E. coli": "soluble"}, {"sequence": "MKKLLSIVLGLALSAPVLANEVSFEQYVERLKQQAREEGISERILNEAFRDVEYKPRSVVADKNQPEKKLTLDEYIPRAVPEWKVKQAQSLYEKHYTELQRIGKQYGVQPRFIVALWGVESNFGAFTGNFRVIDALSTLAYEGRREEFFRKETMAALQILEQGHIAPEAMKGSWAGAMGQCQFMPSSFLNFAADGNGDGKKDIWGTRSDVFASTANYLSQSGWDDKYTWGRQVKIPKGFDHALEGRQPEKGKTLQEWSKLGVTRYDGKPLPALSDDIKAWLIMPDDEAGRIYLVYNNYNVLMKWNRSHYFALAVSHLADRIAF", "soluble on expression in E. coli": "not soluble"}, {"sequence": "MSIVSLAKQSGLSVSSISAYENNKRQPKIESLQKISKVLGVSSAYLNGMSEEKNILNVNSQSLKNNTIDIDVIGFLLNVRSTYPGKVPIFIQDVLAGAPIYIDDNGNKLDAKKRKLLITFLKTLLN", "soluble on expression in E. coli": "not soluble"}, {"sequence": "MKTYYEQDANVGLLQGKTVAVIGYGSQGHAQAQNLRDSGVEVVVGVRPGKSFEVAKADGFEVMSVSEAVRTAQVVQMLLPDEQQAHVYKAEVEENLREGQMLLFSHGFNIHFGQINPPSYVDVAMVAPKSPGHLVRRVFQEGNGVPALVAVHQDATGTALHVALAYAKGVGCTRAGVIETTFQEETETDLFGEQAVLCGGVTALVKAGFETLTEGGYRPEIAYFECLHELKLIVDLMYEGGLTNMRHSISDTAEFGDYVTGSRIVTDETKKEMKRVLTEIQQGEFAKKWILENQAGRPTYNAMKKAEQNHQLEKVGEELREMMSWIHAPKELVKK", "soluble on expression in E. coli": "not soluble"}, {"sequence": "MIEIKRIQQQPDLAQAIYAVMAAVYLVSPWTLEQIQADLSQDQTWYALAYDGAEVIGFLAVQENLFEAEVLQIAVKGAYQGQGIASALFAQLPTDKEIFLEVRQSNQRAQAFYKKEKMTVIAERKAYYHDPVEDAIIMKREIDEG", "soluble on expression in E. coli": "soluble"}, {"sequence": "MTKSETTLSKLLVESELVQECEELLSSLPRDRSVFAEYLYQYQGFWYPPNLLEGVLYSQKHFQARDSDIVLASIPKSGTTWLKSLVFALIHRQEFQTPLVSHPLLDNNPHTLVTFIEGFHLHTQDTSPRIFSTHIPVGSLPESVKDSSCKVVYCCRNPKDAFVSLWHFMKNLIVKEMVGCTMEEMVRFFCRGSSIYGPFWDHVLQYWKESRENPKKVMFVMYEEMREQPQEWVMRIAEFLGYSFTEEEIENGVLEDIIKLCSLENLSKLEVNEKGKLLNGMETKAFFRKGEIGGWRDTLTPLLAEEIDKTTKEKLIGSDFRFFC", "soluble on expression in E. coli": "soluble"}, {"sequence": "MGSDKIHHHHHHMQEMILLQQKVDETIRALGGYFRPLSGLARLIEEVGEVGEALETGDELSFQAELVDVLMISTCLANQYVTDLAQQHQQLGTMEDEGQGSFYRLVHEAGQVARVMNGYEGDKPPKQTEDIIPIGMSLARLQRELFRLVRPHGINLLQEIDRTNEKNLNRDRKRFALTRDPVTEATIDHFRSATGNTERLWGAPAYESDLALEAHIQAALPSLRRFLRCARIEGIAGFVIEAPMERTDSLRSVKDQADEIGRIVKEQTPLSFKEAPYRIDVYAPQLGPVSPYHAEDDHRMFLVLHVDE", "soluble on expression in E. coli": "not soluble"}, {"sequence": "MLARLLLSFSVVLTAFGVGAAEVDKTQPYQMMKQVAEVTFARLKAEQPKIKQDPNLLKVIVEQELMPYVNDRYAALKLLGPNLKGAKREDVLEFVDAFRAYLIASYAQVLTQYSDQQIEFGPEPKLDDSKRITSIKVEIIDAPRPNIKLEFKLRKDNKTDEWEAFDMVAEGISLLSSKQSEWNTKIRQDGILAVAQDLEKLAAEPIRFEAKK", "soluble on expression in E. coli": "soluble"}, {"sequence": "MGLCLAKRNHDADDDEPHIELAGGNVHLITTKERWDQKLSEASRDGKIVLANFSARWCGPCKQIAPYYIELSENYPSLMFLVIDVDELSDFSASWEIKATPTFFFLRDGQQVDKLVGANKPELHKKITAILDSLPPSDK", "soluble on expression in E. coli": "soluble"}, {"sequence": "MTVSSSAWMPRLISQQILSEYVKSLEVEADKVVIPGQNTPVFSWDRDGNGNLSIDTPLLKVRGESLATQADLTTISLTPGPKGELWQTSVERLDIKVDKHISLTFKNGVRID", "soluble on expression in E. coli": "not soluble"}, {"sequence": "MWKTASDKGLGHLLRDVWSLLNEEERELLDKEIQPFPCKKASTVFSEGDIPNNLFYLYEGKIKILREGVYGRFHISRIVKPGQFFGMRPYFAEETCSSTAIAVENSKVLAIPVEAIEALLKGNTSFCRYFLKALAKELGYAERRTVTLTQKHVRGRLAETLLILKENFGFENDGATLSIYLSREELATLSNMTVSNAIRTLSTFVSERMLALDGKRIKIIDCDRLQKTARSG", "soluble on expression in E. coli": "soluble"}, {"sequence": "VQLLESGPGVVKPSETLSLTCTVSGASVNNYYWTWVRQPPGKGLEWIGNVYDSGDTNYNPSLSSRLSLSMDTSKNQFSLRLSSVTAADTATYYCARYHRHFIRGPLSFDYWGRGTLVTVSSASTKGPSVFPLAPSSKSTSGGTSALGCLVKDYFPEPVTVSWNSGALTSGVHTFPAVLQSSGLYSLSSVVTVPSSSLGTQTYICNVNHKPSNTKVDKKVEPKSCDKTS", "soluble on expression in E. coli": "soluble"}, {"sequence": "MGSDKIHHHHHHMTPAAVGQLVRTLEDWLGFPLFHRQTNGKNRLVATELAESVLPDIRAGFDKLTLALEKLKQDSLSGVLNIAVSPAFAEKWLLPRIDHFQKQYPDIDIRLDINLKTVDFLEQKVDVGVRYGQGQWQGLEAVKLMDEEVYPVCSPAFLNEHSFLLTPNDLKNITLIHDLSMEKHQQFPGWQSWLKSVGLNDINISRGMQINSSSAVLQAAMEGHGVALARSVMVQKDIQTGRLIRLFPQINFSSPFSYYLVYRPQYANLPKVKICLDWFFEEIHRI", "soluble on expression in E. coli": "not soluble"}, {"sequence": "MGSDKIHHHHHHMIPEKRIIRRIQSGGCAIHCQDCSISQLCIPFTLNEHELDQLDNIIERKKPIQKGQTLFKAGDELKSLYAIRSGTIKSYTITEQGDEQITGFHLAGDLVGFDAIGSGHHPSFAQALETSMVCEIPFETLDDLSGKMPNLRQQMMRLMSGEIKGDQDMILLLSKKNAEERLAAFIYNLSRRFAQRGFSPREFRLTMTRGDIGNYLGLTVETISRLLGRFQKSGMLAVKGKYITIENNDALAQLAGHTRNVA", "soluble on expression in E. coli": "not soluble"}, {"sequence": "MSEILVLNCGSSSVKFALINPHTSQSLVTGLAENIATKNCKVVFKAEHKIVKYLENGSYKDVFEMLKDFLVENKHLEKIVAIGHRVVHGGQYFSKSVLINADSLEKIKACIALAPLHNPAHIEGIRFCQQIFPELPQVAVFDTAFHQTMPSYIAEYAIPYELTHKHNIRKYGAHGTSHKYVSEQAAKILTQQKANVIVAHLGNGCSITAVVDGKSIDTSMGLTPLDGLVMGTRSGCIDPSIFAYISDNLGWSVTEITNMLNKQSGLLGICGHNDMREVSQLAAKGDSLAKLAIEIFSHRVAKFVASYMIYFNKLDALVFTGGIGENAANIRKNIISKLANLGFMIDHQKNSNSETFINSKNSHNIMVIATNEELMIAQETQNLI", "soluble on expression in E. coli": "soluble"}, {"sequence": "MVVMSKVLLNIGCADVDKPGYINVDARKTKVTHLVSNAWDLDCFEENSVHEIYSRHMLEHLNPEYAKLALQKWFYILEPEGKLVVIVPDIEFHARQLLGVSRSSFGDQMEHAFAGFWGWREKERGGSDFDAHQWGYTVATLENEIGAVGFERIERVVEGVDSEPWHLQMTARKPMTSLCCPMDFRGPFPLEHHHHHH", "soluble on expression in E. coli": "soluble"}, {"sequence": "MSLEKKDTNSLKLLLIGNTGIGEYKSRAERKGLWYKLKRFLWTNEFDQTVSALAKWHAEEKADAVLGLGDFLGIPGPLSARDERFTKRWYDIFVKDAKLDIPWLMTLGEEEALVNPSASVRHHYTGEHPNWYMPNDAYTATFSFSTSMTMANGTIQHEAFNATVINVNTWNLFVGNPIANNMQSMMDRLMWLSDQLYTAVNQTTNWLIIMGHLPLVSTGPQGEQGRLQYVDDLYKNGQPRGPEAVLIQMLLSHYQVDLYVSAHDHFMEYVALEDLSKNTTTAFITSGAAVRLLDKDVGRGWIGRLRGALYPILCWSGRRILYAFHPGEGHHHHHH", "soluble on expression in E. coli": "not soluble"}, {"sequence": "GHMATIHPTAIVDEGARIGAHSRIWHWVHICGGAEIGEGCSLGQNVFVGNRVRIGNRVKIQNNVSVYDNVFLEDDVFCGPSMVFTNVYNPRAAIERKSEYRDTIVRQGATLGANCTVVCGATIGRYAFVGAGAVVNKDVPDFALVVGVPARQIGWMSRHGEQLDLPLRGNAEATCPHTGERYILTDGVCRLA", "soluble on expression in E. coli": "soluble"}, {"sequence": "MGSDKIHHHHHHMSEKTLYQKLQNIHKKVPYIQKSQQASQYSYAGSSDVLGTIHGLMDEEKLILIPQITNKNTETSQNRKGSTVIFTELMMTMTWVNSDNPDEKLECQWYAQGIDTAGEKGVGKALTYGEKYFLLKFFNVATDDLDPDAFQENVKAQKAPELINDEQKKTLKELFNSMASVTKTPIEKVSKAYLKKVNSDSIEKLQEDTAIGLIELVTNQLNKQTEKAGK", "soluble on expression in E. coli": "not soluble"}, {"sequence": "MSLGKEAEMNYPTDEKNFFQILEEQLSYFKINKKIKEICIFIINNLDKKGYLELSKIEIKDILEVSNKELEEAFDIIHNLEPYGIGAYSLEECLKIQLKAKKIIEEKLSLFIDNYLYLLADKKYDLIKEKLNINDNILFSYIDIIKSLNPIPSRGYSVGKVRKIIPDVLVEIKKNEIFYEINRASIPQINVKDKIEDKYYKKINEIISCIEKRFETIDKIMKIIIREQKIFFTSQGKKINTLKISDIADKLNLSPSTVSRAVKEKYIKTNFGIISLRKLFNLDSAVFLYQQKILEYIENENKENPISDQDIVNLLEKDGIKIARRTVTKYREKLGYKSSHKRKKYEGHHHHHH", "soluble on expression in E. coli": "not soluble"}, {"sequence": "MGSDKIHHHHHHMRRVNRPAPLSERQYEYMQRCINSWFNVAEGGKRGGKNVLQTLIFCSLLETHKNKIHLVAGVSSATAKLNILDCDGYGLLNYFEGRCREGKYKDRDCVYVQTKTGEKIVLVSGGGKDGDEKLIKGNTYGMAYVTEANECHQKFLKEVFDRTLSSTDRKIFHDLNPKEEEHWYYTEILKFHEEQQANDENYGYNYGHFTLVDNMSMSDEKIRTVLKTYQKGTVWYKRDIKGERAVAEGIIFRKFKENNIPYLCDDSILKYNKDGELFPRPSKVIIGMDFGGNGSMTTMVCSLYFRGYHFIYPVEEDYLELSPDIDANNICDKYIEFYRRCAAKYERIDWTFPDSASTTMINSLRSAAKKDGLRYDHIAGCRKNEISERPRTVDLLLNTGRMKVHKRCVNLRKAIGTLKWDEKHPNIPEDKNIGNCNDWWDALCYTMLDFIEYIDLDR", "soluble on expression in E. coli": "not soluble"}, {"sequence": "MGSDKIHHHHHHTSEEREVFENQEGMHRLIPLIEAQTEEDLTPTMREYFAQIREYRKTPHVKGFGWFGNWTGKGNNAQNYLKMLPDSVDFVSLWGTRGYLSDEQKADLKFFQEVKGGKALLCWIIQDLGDQLTPKGLNATQYWVEEKGQGNFIEGVKAYANAICDSIEKYNLDGFDIDYEPGYGHSGTLANYQTISPSGNNKMQVFIETLSARLRPAGRMLVMDGQPDLLSTETSKLVDHYIYQAYWESSTSSVIYKINKPNLDDWERKTIITVEFEQGWKTGGITYYTSVRPELNSMEGNQILDYATLDLPSGKRIGGIGTYHMEYDYPNDPPYKWLRKALYFGNQVYPGKFD", "soluble on expression in E. coli": "not soluble"}]}]}
